{
  "source": "patent US8334260B2",
  "about": "“sFRP and peptide motifs that interact with sFRP and methods of their use” (The United States of America as represented by the …, priority 2001, dated 2012)",
  "key": {"RANKL [1]": {"biological_target": "T1, RANKL (Homo sapiens, UniProt O14788)", "T1 construct": "For ELISA assays, recombinant soluble RANKL and TRAIL, and antibodies directed against these proteins were obtained from PeproTech; purchased PeproTech (Rocky Hill, N.J.)", "T1 sequence (O14788 140-317)": "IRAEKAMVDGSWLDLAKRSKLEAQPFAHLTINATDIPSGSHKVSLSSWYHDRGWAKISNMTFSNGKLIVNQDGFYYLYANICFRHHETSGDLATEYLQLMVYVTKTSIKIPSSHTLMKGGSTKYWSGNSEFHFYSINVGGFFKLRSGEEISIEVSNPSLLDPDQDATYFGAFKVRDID", "assay": "ELISA of soluble RANKL binding to wells coated with sFRP-1, sFRP-1 derivatives or sFRP-2", "conditions": "ELISA, coated wells versus BSA", "experimental": "(§1) ELISA experiments were generally performed as previously described (Uren et al., J. Biol. Chem. 275:4374-4382, 2000), with modifications depending on the sFRP binding partner to be tested. Typically, wells were coated with 0.5 or 1 μg of sFRP-1, blocked with BSA (0.2%, 1%, or 4%) and then incubated with putative binding partner overnight at room temperature. When investigating the binding of peptide/AP chimeras, after aspiration of bacterial broths, wells were washed and incubated with p-nitrophenolphosphate (pNPP). Color development was determined at 405 nm with an ELISA reader. For competition experiments, soluble peptides were preincubated with peptide/AP chimeras in bacterial broth for 30 min at room temperature prior to transfer into ELISA wells coated with sFRP-1 or BSA. When testing RANKL binding to sFRP-1, serial dilutions of soluble RANKL were assayed in replicate. Following overnight incubation at room temperature, RANKL solutions were aspirated and bound RANKL was detected by sequential incubations with primary antibody to RANKL, secondary antibody coupled with AP and pNPP. Similar experimental designs were employed when other TNFα family members were examined for binding to sFRPs, and when sFRP-1 derivatives or sFRP-2 were the binding targets for RANKL.\n(§2) The possibility that sFRP-1 (SEQ ID NO: 3) and RANKL interact directly with each other was tested using an ELISA assay. […] RANKL was then incubated in these wells and in adjacent wells that had only been treated with BSA."}, "RAW264.7 cells [2]": {"system": "RAW264.7 cells", "assay": "RANKL-independent (TNFα-dependent) osteoclast formation in RAW264.7+TNFα+TGFβ", "format": "cell-based", "experimental": "The effect of sFRP-1 was assessed upon a RANKL-independent method of osteoclast formation using the monocyte/macrophage cell line RAW264.7 (Quinn et al., Journal of Bone and Mineral Research. 16, 1787-1794, 2001) and was compared with that of osteoprotegerin (FIG. 14).\n(§3) The effect of bacterially expressed CRD was assessed in three different cell culture models of osteoclast formation. These were: (1) bone marrow cells+RANKL+M-CSF, (2) the macrophage/monocyte cell line RAW264.7+RANKL, and (3) RAW264.7+TNFα+TGFβ (Horwood et al., Journal of Immunology 166:4915-4921, 2001; Quinn et al., Journal of Bone and Mineral Research. 16, 1787-1794, 2001)."}, "bone marrow cells": {"system": "bone marrow cells", "assay": "Osteoclast formation in bone marrow cells+RANKL+M-CSF", "format": "cell-based", "experimental": "as §3"}, "RAW264.7 cells [3]": {"system": "RAW264.7 cells", "assay": "RANKL-induced osteoclast formation in RAW264.7 cells", "format": "cell-based", "conditions": "RAW264.7+RANKL", "experimental": "In some instances, experiments were performed either with adult mouse spleen cells or with RAW264.7 cells treated with M-CSF and RANKL as described in Quinn et al., Endocrinology 139:4424-4427, 1998. Where indicated, these assays were conducted in the presence or absence of splenic T cells. T cell fractions were prepared as described in Horwood et al., Journal of Clinical Investigation 101:595-603, 1998.\nas §3"}, "TRAIL": {"biological_target": "T2, TRAIL (Homo sapiens, UniProt P50591)", "T2 construct": "For ELISA assays, recombinant soluble RANKL and TRAIL, and antibodies directed against these proteins were obtained from PeproTech; purchased PeproTech (Rocky Hill, N.J.)", "T2 sequence (P50591 39-281 limits assumed, species assumed)": "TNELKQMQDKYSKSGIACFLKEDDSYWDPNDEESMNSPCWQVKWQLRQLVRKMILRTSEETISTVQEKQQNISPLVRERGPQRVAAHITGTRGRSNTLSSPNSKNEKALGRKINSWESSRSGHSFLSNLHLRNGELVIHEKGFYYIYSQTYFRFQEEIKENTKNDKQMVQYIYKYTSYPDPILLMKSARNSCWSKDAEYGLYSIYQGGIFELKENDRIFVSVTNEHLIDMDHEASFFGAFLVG", "assay": "ELISA of TRAIL binding to sFRP-2", "conditions": "ELISA format", "experimental": "as §1, with “RANKL. […]” for “RANKL.”"}, "RANKL [4]": {"biological_target": "T3, RANKL (Mus musculus, UniProt O35235)", "T3 construct": "For ELISA assays, recombinant soluble RANKL and TRAIL, and antibodies directed against these proteins were obtained from PeproTech; purchased PeproTech (Rocky Hill, N.J.)", "T3 sequence (O35235 158-316)": "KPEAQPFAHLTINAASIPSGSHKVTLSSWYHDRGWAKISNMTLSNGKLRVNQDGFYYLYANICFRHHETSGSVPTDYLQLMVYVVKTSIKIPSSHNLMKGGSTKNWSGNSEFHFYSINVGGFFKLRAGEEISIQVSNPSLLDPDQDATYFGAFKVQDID", "assay": "ELISA of soluble RANKL binding to wells coated with sFRP-1, sFRP-1 derivatives or sFRP-2", "conditions": "RANKL variant with amino-terminal sequence beginning with residue 158", "experimental": "as §1, §2"}, "TNFα": {"biological_target": "TNFα (Homo sapiens, UniProt P01375)", "sequence (P01375 77-233 limits assumed, species assumed)": "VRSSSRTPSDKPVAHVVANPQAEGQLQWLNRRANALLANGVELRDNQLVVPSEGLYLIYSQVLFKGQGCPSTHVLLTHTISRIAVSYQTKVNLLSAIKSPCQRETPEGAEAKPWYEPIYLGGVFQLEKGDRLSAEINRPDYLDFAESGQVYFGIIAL", "assay": "ELISA of TNFα binding to sFRP-1", "conditions": "ELISA format", "experimental": "as §1, with “RANKL. […]” for “RANKL.”"}, "[5]": {"system": "co-cultures of primary osteoblasts and bone marrow cells", "assay": "Osteoclastogenesis co-culture of primary osteoblasts and bone marrow cells (TRAP+ cells)", "format": "cell-based, mouse", "conditions": "vitamin D3 (10^-8 M) and PGE2 (10^-7 M)", "experimental": "Osteoblastic cells were prepared from the calvaria of newborn mice by digestion with 0.1% collagenase (Worthington Biochemical Co., Freefold, […]) and 0.2% dispase (Godo Shusei, Tokyo, Japan). Bone marrow and spleen cells were obtained from adult and from newborn mice, respectively (Udagawa et al., J. Exp. Med. 182: 1461-1468, 1995). Osteoblastic cells were co-cultured with bone marrow or spleen cells as described previously (Udagawa et al., J. Exp. Med. 182: 1461-1468, 1995). In short, primary osteoblastic cells (2×10^4/well) and nucleated spleen cells (1×10^6/well) or marrow cells (5×10^5/well) were co-cultured in 48-well plates (Corning Glass Inc., Corning, N.Y.) with 0.4 mL of α-MEM (GIBCO/BRL, Grand Island, N.Y.) containing 10% fetal bovine serum (Cytosystems, Castle Hill, NSW, Australia) in the presence of test chemicals. Cultures were incubated in quadruplicate and cells were replenished on day 3 with fresh medium. Osteoclast formation was evaluated after culturing for 6-7 days. Adherent cells were fixed and stained for tartrate-resistant acid phosphatase (TRAP), and the number of TRAP-positive osteoclasts was scored as described (Udagawa et al., J. Exp. Med. 182: 1461-1468, 1995). For TRAP staining, adherent cells were fixed with 4% formaldehyde in PBS for 3 minutes. After treatment with ethanol-acetone (50/50, vol/vol) for 1 minute, the well surface was air dried and incubated for 10 minutes at room temperature in an acetate buffer (0.1 M sodium acetate, pH 5.0) containing 0.01% naphthol AS-MX phosphate (Sigma) as a substrate and 0.03% red violet LB salt (Sigma) as a stain for the reaction product in the presence of 50 mM sodium tartrate. TRAP-positive cells appeared dark red, and those with three or more nuclei were scored as multinucleated and considered as osteoclasts. […] CTR expression was determined either by autoradiography with ^125I-salmon calcitonin or by immunohistochemical localization using an array of antibodies we have developed as described by Quinn et al., Bone 25:1-8, 1999."}},
  "data": [
    {"molecule": "bacterially expressed CRD: cysteine-rich domain of sFRP-1, residues 38-166, expressed in bacteria (protein) FQSDIGPYQSGRFYTKPPQCVDIPADLRLCHNVGYKKMVLPNLLEHETMAEVKQQASSWVPLLNKNCHAGTQVFLCSLFAPVCLDRPIYPCRWLCEAVRDSCEPVMQFFGFYWPEMLKCDKFPEGDVCI", "values": [
      {"measurement": "binding to RANKL", "setting": "RANKL [1]", "result": "strong"},
      {"measurement": "effect on osteoclast formation", "setting": "RAW264.7 cells [2]; RAW264.7+TNFα+TGFβ, RANKL-independent", "result": "mimicked the action of full-length sFRP-1 and with similar potency"},
      {"measurement": "effect on osteoclast formation", "setting": "bone marrow cells", "result": "mimicked the action of full-length sFRP-1 and with similar potency"},
      {"measurement": "effect on osteoclast formation", "setting": "RAW264.7 cells [3]", "result": "mimicked the action of full-length sFRP-1 and with similar potency"}
    ]},
    {"molecule": "sFRP-2: recombinant mouse sFRP-2 purified from transfected MDCK cells (protein) LFLFGQPDFSYKRSNCKPIPANLQLCHGIEYQNMRLPNLLGHETMKEVLEQAGAWIPLVMKQCHPDTKKFLCSLFAPVCLDDLDETIQPCHSLCVQVKDRCAPVMSAFGFPWPDMLECDRFPQDNDLCIPLASSDHLLPATEEAPKVCEACKTKNEDDNDIMETLCKNDFALKIKVKEITYINRDTKIILETKSKTIYKLNGVSERDLKKSVLWLKDSLQCTCEEMNDINAPYLVMGQKQGGELVITSVKRWQKGQREFKRISRSIRKLQC", "values": [
      {"measurement": "binding to RANKL", "setting": "RANKL [1]", "result": "can bind"},
      {"measurement": "binding to TRAIL", "setting": "TRAIL", "result": "can bind"}
    ]},
    {"molecule": "sFRP-1: recombinant human secreted Frizzled-related protein-1 (protein, listed as Homo sapiens) MGIGRTEGGRRGAALGVLLALGGASGRGLGSEYDYVSFQSDIGPYQSGRFYTKPPQCVDIPADLRLCHNVGYKKMVLPNLLEHETMAEVKQQASSWVPLLNKNCHAGTQVFLCSLFAPVCLDRPIYPCRWLCEAVRDSCEPVMQFFGFYWPEMLKCDKFPEGDVCIAMTPPNATEASKPQGTTVCPPCDNELKSEAIIEHLCASEFALRMKIKEVKKENGDKKIVPKKKKPLKLGPIKKKDLKKLVLYLKNGADCPCHQLDNLSHHFLIMGRKVKSQYLLTAIHKWDKKNKEFKNFMKKMKNHECPTFQSVFK", "values": [
      {"measurement": "binding to RANKL", "setting": "RANKL [1]", "result": "bound specifically"},
      {"measurement": "binding to a derivative of RANKL lacking the A-C2 motif", "setting": "RANKL [4]", "result": "observed binding"},
      {"measurement": "effect on TNFα-dependent osteoclast formation", "setting": "RAW264.7 cells [2]; present during the first three days of culture", "result": "inhibited"},
      {"measurement": "binding to TNFα", "setting": "TNFα", "result": "can bind"},
      {"measurement": "reduction of the number of multinucleated TRAP+ cells", "setting": "[5]; 300 ng/mL", "result": 50, "unit": "%"},
      {"measurement": "reduction of the number of multinucleated TRAP+ cells", "setting": "[5]; 1.6 ug/mL", "result": 95, "unit": "%"},
      {"measurement": "effect on osteoclast formation", "setting": "[5]", "result": "dose-dependent inhibitory activity"}
    ]}
  ]
}
